In article PMC12493170, “Functional and structural characterization of AtAbf43C: an exo-1,5-α-L-arabinofuranosidase from Acetivibrio thermocellus DSM1313” (Biochemical Journal, 2025):

B1: AtAbf43C_GH43 (Acetivibrio thermocellus ATCC 27405) (protein)
chain: DPDKADDSVIVTNPIVRRRADPWVYRHTDGYYYMTASVPEYDRIELRRSRTLQGLSTATPKTIWRRHSSGIMGGHIWAPEIHFIDGKWYIYFSAGTSTNYFDIRLYVLECSDSNPLTGTWVEKGQLKTNWESFTLDATTFEHNGTRYLVWAQKDPKIASNSNIYIAKMNGPLAITGNQVMISTPEYSWEKIGYAVNEGPAVLKKNGKIFITFSASATDANYCMGLLTASDTANLLDPKSWHKSPNPVFQSNPSTGQYGPGHNSFTTSPDGKVDIMVYHARNYRDITGDPLYDPNRHTRAQIVNWNADGTPDFGIPVADGTNVIYIPPQ
notes: isolated GH43 catalytic domain, residues 167-494, no CBM42, cloned in pET28b(+) and IMAC-purified, E. coli BL21(DE3) Rosetta2
B2: AtAbf43C (Acetivibrio thermocellus ATCC 27405) (protein)
chain: TGADGAIAKLQSYNYSHMYIRNANFDVRIDDNVTPETDAQWVLVPGLANSGEGYVSIQSVDHLGYYLRHWNYDFRLEKNDGTRIFAEDATFKMVPGLADPSYTSFQSYNYPTRYIRHYNYLLRLDEIVTALDREDATFRVIDSSSVDPDKADDSVIVTNPIVRRRADPWVYRHTDGYYYMTASVPEYDRIELRRSRTLQGLSTATPKTIWRRHSSGIMGGHIWAPEIHFIDGKWYIYFSAGTSTNYFDIRLYVLECSDSNPLTGTWVEKGQLKTNWESFTLDATTFEHNGTRYLVWAQKDPKIASNSNIYIAKMNGPLAITGNQVMISTPEYSWEKIGYAVNEGPAVLKKNGKIFITFSASATDANYCMGLLTASDTANLLDPKSWHKSPNPVFQSNPSTGQYGPGHNSFTTSPDGKVDIMVYHARNYRDITGDPLYDPNRHTRAQIVNWNADGTPDFGIPVADGTNVIYIPPQTPTPIPTNSPTPSDLIY
notes: residues 21-511 of 580, no signal peptide or dockerin I domain, C-terminal LEHHHHHH tag, pET28b(+), E. coli BL21(DE3) Rosetta2

Assays:
[1] = target: T1, AtAbf43C (Acetivibrio thermocellus, UniProt A3DHB3, D302A); experiment: pNP release at […] nm, activity relative to wild type; format: biochemical; conditions: 5 mM substrate, pH 5.5 sodium acetate, 65 °C, 10 min; catalytic residue
T1 construct: gene Cthe_2138; residues 21-511 of 580, no signal peptide or dockerin I domain, C-terminal LEHHHHHH tag, pET28b(+), E. coli BL21(DE3) Rosetta2

[2] = target: T2, AtAbf43C (Acetivibrio thermocellus, UniProt A3DHB3, D187A); experiment: as above; format: biochemical; conditions: 5 mM substrate, pH 5.5 sodium acetate, 65 °C, 10 min; catalytic residue
T2 construct: gene Cthe_2138; residues 21-511 of 580, no signal peptide or dockerin I domain, C-terminal LEHHHHHH tag, pET28b(+), E. coli BL21(DE3) Rosetta2

[3] = target: T3, AtAbf43C (Acetivibrio thermocellus, UniProt A3DHB3, E363A); experiment: as above; format: biochemical; conditions: 5 mM substrate, pH 5.5 sodium acetate, 65 °C, 10 min; catalytic residue
T3 construct: gene Cthe_2138; residues 21-511 of 580, no signal peptide or dockerin I domain, C-terminal LEHHHHHH tag, pET28b(+), E. coli BL21(DE3) Rosetta2

[4] = substrate: O=[N+]([O-])c1ccc(O[C@@H]2O[C@@H](CO)[C@H](O)[C@H]2O)cc1; experiment: purified protein; format: biochemical, Acetivibrio thermocellus; conditions: pH 5.5, 100 mM sodium acetate, 65 °C, 2 min, 0.9-36 mM substrate, full saturation not achieved

T2 sequence (A3DHB3 entry or part of it D187A): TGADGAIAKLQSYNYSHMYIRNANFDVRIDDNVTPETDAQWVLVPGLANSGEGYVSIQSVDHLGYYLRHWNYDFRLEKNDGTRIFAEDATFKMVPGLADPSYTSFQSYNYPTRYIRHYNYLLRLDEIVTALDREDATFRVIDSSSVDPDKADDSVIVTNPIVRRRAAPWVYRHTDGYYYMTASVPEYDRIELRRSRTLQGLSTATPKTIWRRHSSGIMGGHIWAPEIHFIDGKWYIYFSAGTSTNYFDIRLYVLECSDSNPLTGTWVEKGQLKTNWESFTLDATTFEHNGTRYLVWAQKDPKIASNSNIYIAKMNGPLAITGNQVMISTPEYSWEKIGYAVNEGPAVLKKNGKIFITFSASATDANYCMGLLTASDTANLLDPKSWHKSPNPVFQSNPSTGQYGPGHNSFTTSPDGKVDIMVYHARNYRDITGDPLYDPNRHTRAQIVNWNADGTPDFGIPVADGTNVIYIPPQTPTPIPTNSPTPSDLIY
T3 sequence (A3DHB3 entry or part of it E363A): as the sequence (A3DHB3 entry or part of it D187A) above, with A167D, E343A counted along it
T1 sequence (A3DHB3 entry or part of it D302A): as the sequence (A3DHB3 entry or part of it D187A) above, with A167D, D282A counted along it

Molecule	% activity relative to wildtype [1]	% activity relative to wildtype [2]	% activity relative to wildtype [3]	Km [4]	kcat [4]	kcat/Km [4]
O=[N+]([O-])c1ccc(O[C@@H]2O[C@@H](CO)[C@H](O)[C@H]2O)cc1 [pNPAra, para-nitrophenol-α-L-arabinofuranoside]	activity on pNPAra was completely eliminated in any of the versions	activity on pNPAra was completely eliminated in any of the versions	activity on pNPAra was completely eliminated in any of the versions			
B1				59.6 ± 12.1 mM	238 ± 33.4 s⁻¹	4000 ± 1000 M⁻¹ s⁻¹
B2				22.7 ± 4.1 mM	269 ± 25.5 s⁻¹	11900 ± 2400 M⁻¹ s⁻¹
